Experimental data from patent publication US20220017604A1 (WASHINGTON UNIVERSITY, published 2022).
Several values for one entry are separate records, joined by “and”; a condition that tells them apart may be missing. Identical values can stand only once.

Biological target: S protein of infectious SARS-CoV-2 strain 2019 n-CoV/USA_WA1/2020 (SARS-CoV-2, UniProt P0DTC2 14-1273)
Experiment: cell-based or functional assay

B1: Hu-Ab-1 (Hu-2B04) (antibody, V domains shown)
VH: EVQLQESGPGLVKPSETLSLTCTVSGFSLINYAISWVRQPAGKGLEWLGVIWTGGGTNYNAALKSRLSISKDNSKSQVSLKMNSVTAADTAVYYCARKDYYGRYYGMDYWGQGTTVTVSS
VL: QAVVTQEPSLTVSPGGTVTLTCRSSTGAVTTSNYANWVQEKPGQAFRGLIGGTNNRAPGVPARFSGSLLGDKAALTLSGAQPEDEAEYFCALWYNNHWVFGGGTKLTVLG
With B1 the “IC50, live virus neutralization assay” value was 1.65 ng/mL.

B2: 2H04 (antibody, V domains shown)
VH: EVQLQQSGAELVKPGASVKMSCKASGYTFTSYWITWVKQRPGQGLEWIGDIYPGSGSTKYNEKFRSEATLTVDTSSTTAYMQLSSLTSEDSAVYYCARWDFYGSRTFDYWGQGTTLTVSS
VL: DIVLTQSPAILSVSPGERVSFSCRASQNIGTIIHWYQQRTNGSPRLLIKYASESVSGIPSRFSGSGSGTDFTLSINSVESEDIADYYCQQSSSWPLTFGAGTKLELK
B2 was tested, and the “IC50, neutralization of infectious SARS-CoV-2” value was < 500 ng/mL.

B3: murine/human chimeric mAb Ab-1 (2B04) (antibody, V domains shown)
VH: QVQLKQSGPGLVAPSQSLSITCTVSGFSLINYAISWVRQPPGKGLEWLGVIWTGGGTNYNSALKSRLSISKDNSKSQVFLKMNSLQTDDTARYYCARKDYYGRYYGMDYWGQGTSVTVSS
VL: QAVVTQESALTTSPGETVTLTCRSSTGAVTTSNYANWVQEKPDHLFTGLIGGTNNRAPGVPARFSGSLIGDKAALTITGAQTEDEAIYFCALWYNNHWVFGGGTKLTVL
With B3 the “IC50, focus reduction neutralization test (FRNT) on Vero E6 cells” value was 1.46 ng/mL and the “IC50, neutralization of infectious SARS-CoV-2” value was < 2 ng/mL and < 500 ng/mL.
